The record followed here is US20250355001A1 (GTINVENT, published 2025).

The target in test [1] is T1, full length human tau protein 2N4R (hT40) (human, UniProt P10636 1-758).
T1 construct: recombinant; also called T441
The test can be described thus: SPR, hT40 immobilised, mAb analyte. Here is the method: (§1) For anti-tau mAb SPR measurements, htau40 was conjugated to the surface of a CM5 sensor chip using amine coupling as explained previously. Briefly, 2 μg/mL htau40 in 10 mM Sodium acetate buffer (pH 4.0) was passed over the activated chip surface (EDC/NHS) in flow cell 2 for a period for 45 s followed by blocking with 1 M ethanolamine-HCl PH 8.5. Flow cell 1 was set up as reference control and blocked simultaneously. Final immobilisation level of htau40 (Rmax) was approximately 250 RU. […] The mAb was added for a 120 s association period and 600 s dissociation period followed by a regeneration cycle of 30 s injection of glycine buffer pH 1.5 in between each cycle. Binding responses were analysed in Biacore X100 evaluation software and data fitted to a 1:1 binding model to obtain kinetic and affinity characterisation.
For anti-tau mAb SPR measurements (Biacore X100™) and epitope mapping, the same methodologies described above (see Example 16) were followed.
In general terms: Surface plasmon resonance follows binding to a sensor surface in real time, without labels.

The target in test [2] is T1, full length human tau protein 2N4R …. The test can be described thus: SPR, hT40 immobilised, mAb analyte. Here is the method:
as §1
This is another data set of the same source.

Test [3] has the same target. The test can be described thus: SPR, summary table. On the procedure: (§2) The capture antibody was diluted 1/100 in 10 mM Sodium acetate buffer pH 5.0 and passed over the activated chip surface for a period of at least 420 s. Final ligand immobilisation levels over 12,000 RU were deemed to be satisfactory.
(§3) The scAb to be tested was added only to flow cell 2 so that flow cell 1 could act as a control to subtract any interaction with the analyte and the chip surface. […] The multi-cycle protocol was as follows-Three start-up cycles composed of an initial capture, to the desired level, of the scAb to be tested was performed followed by a 30 s injection of glycine buffer pH 2.0 after each cycle to regenerate the chip surface. […] The target was added for a 120 s association period and 420 s dissociation period followed by another regeneration, 30 s injection of glycine buffer pH 2.0 in between each cycle.
(§4) The single cycle kinetics protocol was similar and utilised the same level of scAb capture. […] In single cycle kinetics the regeneration step was performed only after the final analyte concentration was added. Binding responses were analysed in Biacore X100 evaluation software and data fitted to a 1:1 binding model to obtain kinetic and affinity characterisation.

The target of test [4] is dGA (tau 297-390) (human, UniProt P10636 614-707). The test can be described thus: SPR, scAb captured, tau analyte. On the procedure: as §2, §3, §4
In test [5] the target is T1, full length human tau protein 2N4R …. The test can be described thus: SPR, scAb captured, tau analyte. Here is the method: as §2, §3, §4
For test [6] the target is unchanged. The test can be described thus: Biacore. On the procedure:
as §2, §3, §4

Test [7] shares this target. The test can be described thus: sandwich ELISA, S1D12 mAb capture, scAb detection. On the procedure:
Full length tau (hT40), at 1 μg/ml starting concentration was added to designated wells and double diluted across rest of the plates and left to incubate at R/T for 1 h. A series of detection scAbs with varying epitope recognition properties were added at 10 μg/ml to designated wells (FIG. 22). For colourimetric detection HRP conjugated anti-HuCk secondary antibody was used and the resulting immunoreaction was developed and absorbance at 450 nm measured as described previously. Cut-off point for a positive binding event was an absorbance value of 0.3 following background subtraction. In order to enhance the assay sensitivity, a chemiluminescent detection method was adopted where 50 μL SuperSignal ELISA Femto Substrate (Thermo Scientific) was added to each well following incubation with anti-HuCK HRP antibody and subsequent washing. The luminescence was read using Clariostar Plus microplate reader. A further modification to this protocol was done where various detection scAbs were directly conjugated with HRP and detected using chemiluminescent protocol as before.
(ELISA stands for enzyme-linked immunosorbent assay.)

Chain of dGA (tau 297-390) (P10636 614-707 limits assumed): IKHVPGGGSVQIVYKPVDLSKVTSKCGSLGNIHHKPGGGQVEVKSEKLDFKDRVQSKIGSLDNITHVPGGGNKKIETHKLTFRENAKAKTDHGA
T1 sequence (P10636 other isoform, or with tags, fused parts or gaps limits assumed): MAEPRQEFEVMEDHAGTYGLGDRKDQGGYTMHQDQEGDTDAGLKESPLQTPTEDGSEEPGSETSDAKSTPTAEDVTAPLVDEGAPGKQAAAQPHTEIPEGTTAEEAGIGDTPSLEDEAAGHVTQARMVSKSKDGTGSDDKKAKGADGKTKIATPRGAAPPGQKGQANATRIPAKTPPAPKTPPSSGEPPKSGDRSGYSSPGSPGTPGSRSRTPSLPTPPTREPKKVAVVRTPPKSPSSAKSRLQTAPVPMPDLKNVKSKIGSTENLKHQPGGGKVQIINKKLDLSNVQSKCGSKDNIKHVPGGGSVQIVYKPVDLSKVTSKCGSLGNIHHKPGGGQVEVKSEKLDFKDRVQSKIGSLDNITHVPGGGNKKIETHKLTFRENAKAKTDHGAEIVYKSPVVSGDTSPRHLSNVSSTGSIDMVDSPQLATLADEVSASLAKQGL

B1: 3aH6 mAb (antibody)
heavy: QVQLQESGPSLVKPSQTLSLTCTVSGFSLSSNGVGWVRQAPGKVPEWLGDISSVGKKYANPALKSRLSFTRDTSKSQVSLSLSSVTTEDTAVYYCVKCRDGGVTYGYDIDYWGPGLLVTASSAKTTAPSVYPLAPVCGDTTGSSVTLGCLVKGYFPEPVTLTWNSGSLSSGVHTFPAVLQSDLYTLSSSVTVTSSTWPSQSITCNVAHPASSTKVDKKIEPRGPTIKPCPPCKCPAPNLLGGPSVFIFPPKIKDVLMISLSPIVTCVVVDVSEDDPDVQISWFVNNVEVHTAQTQTHREDYNSTLRVVSALPIQHQDWMSGKEFKCKVNNKDLPAPIERTISKPKGSVRAPQVYVLPPPEEEMTKKQVTLTCMVTDFMPEDIYVEWTNNGKTELNYKNTEPVLDSDGSYFMYSKLRVEKKNWVERNSYSCSVVHEGLHNHHTTKSFSRTPGK
light: QAVVTQPSSVSGSLGQSVSITCSGSSGNVGYGDYVSWFQQFHGSAPKLLIYGATNLASGVPARFSGSRSGNTATLTISSLHAEDEADYYCASYDSSSGGVFGSGTRLTVLGGQPKSSPSVTLFPPSSEELETNKATLVCTITDFYPGVVTVDWKVDGTPVTQGMETTQPSKQSNNKYMASSYLTLTARAWERHSSYSCQVTHEGHTVEKSLSRADCS
For B1, in test [1], binding was put at a Kd of 0.049 nM, the koff was found to be 0.000152 s⁻¹ and the kon is 3.13e+06 M⁻¹ s⁻¹.

B2: CE2 mAb (antibody, mouse IgG2a, V domains shown)
VH: QVQLQESGPSLVKPSQTLSLTCTVSGFSLTNYPVGWVRQAPGKALEWIGNIENDGSANYASALKSRLSITRDTSKNQVSLSLSSATTEDTAVYYCGREFGGSDGYTYFVDIDYWGPGLLVTVSS
VL: QAVLTQPSSVSKSLGQSVSITCSGSSSNVGYGNYVSWFQQVPGSAPKILIYGATSRASGVPDRFSGSRSGNTATLTITSLQAEDEADYYCASYDGSSSGVFGSGTRLTVLG
notes: sheep-mouse IgG2a chimeric mAb
In test [2], B2 showed a Kd of 11 nM, a koff of 0.00522 s⁻¹ and a kon of 458000 M⁻¹ s⁻¹.

B3: E1B8 mAb (antibody, V domains shown)
VH: QVQLQESGPSLVKPSQTLSLTCTVSGFSLTNYPVGWVRQAPGKALEWIGNIENDGSANYASALKSRLSITRDTSKNQVSLSLSSATTEDTAVYYCGREFGGSDGYTYFVDIDYWGPGLLVTVSS
VL: QAVLTQPSSVSKSLGQSVSITCSGSSSNVGYGNYVSWFQQVPGSAPKILIYGATSRASGVPDRFSGSRSGNTATLTITSLQAEDEADYYCASYDGSSSGVFGSGTRLTVLG
In test [1], B3 showed a Kd of 4.22 nM, a koff of 0.00137 s⁻¹ and a kon of 324000 M⁻¹ s⁻¹.

B4: CE3 mAb (antibody, mouse IgG2a, V domains shown)
VH: QVRLQESGPSLVKPSQTLSVTCTVSGFSLISNAVGWVRQAPGKVPESLAGCSSDGKCYYNSALKSRLDITRDTSKNQISLSLSSVTTDDAAVYYCTRGYYPVYGYDYLGTIDYWGPGLLVTVSS
VL: QAVLTQPSSVSGSLGQRVSITCSGSSSNVGRNDVAWFQQLPGSGLRTIIYGTTSRPSGIPDRFSGSKSGVTATLTIDSLQAEDEADYFCASGDSSAINDIFGSGTRLTVLG
notes: as for B2
For the molecule B4, in test [2], binding was characterised by a dissociation constant (Kd) of 16.7 nM, the koff was 0.00172 s⁻¹ and the kon came out at 103000 M⁻¹ s⁻¹.

B5: MD9 mAb (antibody, V domains shown)
VH: QVRLQESGPSLVKSSQTLSLTCTVSGFSLTRESIAWVRQAPGKVPEWLGGVGIDGTSYYSPALKSRLSITRDTSKSQASLSLSSVATEDTAMYYCARNYIDFEYWGPGLLVTVSS
VL: QAVLTQLSSVSGSLGQRISITCSGSSSNVGIYDVSWFQQLPGSGLRTVIYGTNNRPSGVPDRFSGSRSGNTATLTISSLQSEDEAIYYCAAGDSSTIAVFGSGTRLTVLG
In test [1], B5 yielded a dissociation constant Kd of 22 nM, a koff of 0.00146 s⁻¹ and a kon of 66200 M⁻¹ s⁻¹.

B6: 3bG4 mAb (antibody, mouse IgG2a, V domains shown)
VH: QVQLQESGPSLVKPSQTLSLTCTISGFSLISNGVGWVRQAPGKVPEWVGDIASSGKAYSNPALKSRLSITRDTSKSQVSLSLRSVTTEDTAVYYCVRCRDGGVTYGYDIDYWGPGLLVTVSS
VL: QAVLTQPSSVSKSLGQSVSITCSGSTSNVGSGNDVSWFQQVPGSAPKLLFYGATNRASGVPDRFSGSRSGNTATLTITSLQAEDEADYYCGSYDSNSGGIFGSGTRLTVLG
notes: as for B2
Regarding B6, in test [1], the Kd was determined as 0.065 nM, the koff turned out to be 0.000296 s⁻¹ and the kon was 4.54e+06 M⁻¹ s⁻¹.

B7: 3aG3 mAb (antibody, V domains shown)
VH: QVQLQESGPSLVKPSQTLSLTCTVSGFSLSSNGVGWVRQAPGKVPEWVGDISSSGKAYANPALKSRLSITRDTAKTQVFLSLSSVTTEDTAVYYCVRCRDGGVSYGYDIDYWGPGLLVTVSS
VL: QAVLTQPPSVSGSPGQRVSITCSGSSSNIGGGNYLSWFQQVPGSAPKLLIYGATSRASGVPDRFSGSRSGNTATLTISSLQAEDEADYYCASFDTSSGGIFGAGTRLTVLG
As for B7, in test [1], binding was put at a Kd of 0.31 nM, the koff was 0.00475 s⁻¹ and the kon turned out to be 1.53e+07 M⁻¹ s⁻¹.

B8: S1E12 scAb (scFv, not shown: small tags and cut ends)
scFv: QVQLQESGPSLVKPSQTLSLTCTVSGFSLGSNSVGWVRQAPGKAPEWVAGIDTDGEEGYNPALNSRLSITRDTSKSQVSLSLSSVTSEDTAVYYCGRSYRADGLAYGYVQAIDYWGPGLLVTVSSEGKSSGASGESKVDDRVVRTQPSSVSGSLGQRVSITCSGSFIGISSVGWFQQLPGSGLRTIIVASDGRPSGVPDRFSMSKSGNTATLTISSLQAEDEADYFCGSSDRTQYTGVFGSGTRLTVLG
notes: scAb
Turning to B8, the equilibrium dissociation constant (Kd) worked out at 0.829 nM in test [3], 0.543 nM in test [4] and 0.829 nM in test [5]. Besides, the koff in test [4] amounted to 0.00163 s⁻¹; in test [5] it was 0.000319 s⁻¹. The kon in test [4] came to 2.99e+06 M⁻¹ s⁻¹; in test [5], 385000 M⁻¹ s⁻¹.

B9: 412E10 mAb (antibody, mouse IgG2a, V domains shown)
VH: QVQLQESGPSLVKPSQTLSLTCTVSGFSVISDSVAWVRQAPGKVPEWLGASGSSGNKYYNPALKSRLSITRDTSKSQVSLSLSSVTTEDTAVYYCARGIIAGVDVWGRGLLVTVSS
VL: QAVLTQPSSVSGSLGQRVSITCSGSSSNVGYGNYVGWYQQVPGSAPKLLIYGTAIRASGVPDRFSGSRSGDTATLTITSLQAEDEADYYCASYQSNYAFFGSGTRLTVLG
notes: as for B2
For B9, in test [2], the affinity, expressed as Kd, was 9 nM; the koff amounted to 0.015 s⁻¹; the kon came to 1.66e+06 M⁻¹ s⁻¹.

B10: 3bD11 mAb (antibody)
chain: RVRLQGSGPSLVKPSQTLSLTCTVSGFSFDSYYVGWVRQAPGKALEWLGNIYSTGRAFYNPALKSRLSITRDTSKSQVSLSVSSVTIEDTALYYCVRGSYYHGGGNGMVDFFDYWSPGLLVTVSSEGKSSGASGESKVDDQVVRTQPSSVSGSLGQRVSITCSGSSSNVGYGNYVGWFQQVPGSAPKLLIYAATSRASGVPDRFSGSRSGNTATLTIDSLQAEDEADYYCSSYQRGNTGVFGSGTRLTVLG
In test [1], B10 yielded a dissociation constant Kd of 1.49 nM, a koff of 0.00398 s⁻¹ and a kon of 2.67e+06 M⁻¹ s⁻¹.

B11: CC7 scAb (scFv, not shown: small tags and cut ends)
scFv: QVQLQESGPSLVKPSQTLSLTCTVSGFSLTSNAVIWVRQAPGKAPEWVALIDVDGDAAYDPALKSRLSITRDTSKSQVSLSLRSVTTEDTAVYYCARDYGSWGYVSDIDYWGPGLLVTVSSEGKSSGASGESKVDDRVVRTQPSSVSGSLGQRVSITCSGSYITGSSVGWFQQVPGSGLKTVIYDNNDRPSGVPDRFSGSKSGDTATLTISSLQAEDEADYYCASYDTSNIGLFGSGTRLTVLG
notes: scAb
In test [3], B11 showed a Kd of 1.23 nM. In addition, the Kd in test [6] is 1.2 nM. In test [5], binding was put at a Kd of 1.23 nM, the koff amounted to 0.000366 s⁻¹ and the kon was determined as 296000 M⁻¹ s⁻¹. In test [7], this molecule had a LoD chemiluminescence detection of 3.33 ng/mL and a LoD colourimetric detection of 6 ng/mL.

Usually Kd stands for the concentration at which binding is half-saturated. Low readings indicate a tighter complex, high ones a looser complex. In general, koff refers to a measure of how fast the partners let go of each other. A low value points to a long-lived complex. Usually kon stands for the second-order rate constant of association. A high value points to faster complex formation.
